Laboratory results reported in IntAct's records for PubMed 12080061.

B1: 182 kDa tankyrase-1-binding protein (Homo sapiens), Q9C0C2 (parent)
chain: MKVSTLRESSAMASPLPREMEEELVPTGSEPGDTRAKPPVKPKPRALPAKPALPAKPSLLVPVGPRPPRGPLAELPSARKMNMLAGPQPYGGSKRPLPFAPRPAVEASTGGEATQETGKEEAGKEEPPPLTPPARCAAPGGVRKAPAPFRPASERFAATTVEEILAKMEQPRKEVLASPDRLWGSRLTFNHDGSSRYGPRTYGTTTAPRDEDGSTLFRGWSQEGPVKSPAECREEHSKTPEERSLPSDLAFNGDLAKAASSELPADISKPWIPSSPAPSSENGGPASPGLPAEASGSGPGSPHLHPPDKSSPCHSQLLEAQTPEASQASPCPAVTPSAPSAALPDEGSRHTPSPGLPAEGAPEAPRPSSPPPEVLEPHSLDQPPATSPRPLIEVGELLDLTRTFPSGGEEEAKGDAHLRPTSLVQRRFSEGVLQSPSQDQEKLGGSLAALPQGQGSQLALDRPFGAESNWSLSQSFEWTFPTRPSGLGVWRLDSPPPSPITEASEAAEAAEAGNLAVSSREEGVSQQGQGAGSAPSGSGSSWVQGDDPSMSLTQKGDGESQPQFPAVPLEPLPTTEGTPGLPLQQAEERYESQEPLAGQESPLPLATREAALPILEPVLGQEQPAAPDQPCVLFADAPEPGQALPVEEEAVTLARAETTQARTEAQDLCRASPEPPGPESSSRWLDDLLASPPPSGGGARRGAGAELKDTQSPSTCSEGLLGWSQKDLQSEFGITGDPQPSSFSPSSWCQGASQDYGLGGASPRGDPGLGERDWTSKYGQGAGEGSTREWASRCGIGQEEMEASSSQDQSKVSAPGVLTAQDRVVGKPAQLGTQRSQEADVQDWEFRKRDSQGTYSSRDAELQDQEFGKRDSLGTYSSRDVSLGDWEFGKRDSLGAYASQDANEQGQDLGKRDHHGRYSSQDADEQDWEFQKRDVSLGTYGSRAAEPQEQEFGKSAWIRDYSSGGSSRTLDAQDRSFGTRPLSSGFSPEEAQQQDEEFEKKIPSVEDSLGEGSRDAGRPGERGSGGLFSPSTAHVPDGALGQRDQSSWQNSDASQEVGGHQERQQAGAQGPGSADLEDGEMGKRGWVGEFSLSVGPQREAAFSPGQQDWSRDFCIEASERSYQFGIIGNDRVSGAGFSPSSKMEGGHFVPPGKTTAGSVDWTDQLGLRNLEVSSCVGSGGSSEARESAVGQMGWSGGLSLRDMNLTGCLESGGSEEPGGIGVGEKDWTSDVNVKSKDLAEVGEGGGHSQARESGVGQTDWSGVEAGEFLKSRERGVGQADWTPDLGLRNMAPGAVCSPGESKELGVGQMDWGNNLGLRDLEVTCDPDSGGSQGLRGCGVGQMDWTQDLAPQNVELFGAPSEAREHGVGGVSQCPEPGLRHNGSLSPGLEARDPLEARELGVGETSGPETQGEDYSSSSLEPHPADPGMETGEALSFGASPGRCPARPPPSGSQGLLEEMLAASSSKAVARRESAASGLGGLLEEEGAGAGAAQEEVLEPGRDSPPSWRPQPDGEASQTEDVDGTWGSSAARWSDQGPAQTSRRPSQGPPARSPSQDFSFIEDTEILDSAMYRSRANLGRKRGHRAPVIRPGGTLGLSEAADSDAHLFQDSTEPRASRVPSSDEEVVEEPQSRRTRMSLGTKGLKVNLFPGLSPSALKAKLRPRNRSAEEGELAESKSSQKESAVQRSKSCKVPGLGKPLTLPPKPEKSSGSEGSSPNWLQALKLKKKKV

Variants of: B1
Conditions: with tnks1_human TNKS

Variant	effect of a mutation on the interaction
G1513A	disrupting interaction strength
